From the supplement of paper PMC9112550, “Optimization of the antimicrobial peptide Bac7 by deep mutational scanning” (BMC Biology, 2022)

Tested on: Escherichia coli TOP10
Assay: shrunken log2 fold change of peptide-encoding DNA abundance (4.5 h post-induction vs induction); higher = less antimicrobial activity (less host growth inhibition)
Conditions: time post-induction: 4.5 h; library: site-saturation at positions 5, 18, 19, 20
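Note: peptides expressed intracellularly from a pBAD plasmid library in pooled LB shake-flask culture, induced with 0.3% L-arabinose, DNA abundance read by NGS, three biological replicates, DESeq2 with apeglm shrinkage.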

Compared with RRIRRRPPRLPRPRPRPLHVPRP, RRIRPRPPRLPRPRPRPYADPRP is higher in “shrunken log2 fold change” value: -0.125 for the first, 0.0774 for the second.

First: RRIRGRPPRLPRPRPRPKDAPRP
Second: RRIRERPPRLPRPRPRPHVWPRP
The “shrunken log2 fold change” value of the first is higher: 0.432 for the first, 0.191 for the second.

Going from RRIRTRPPRLPRPRPRPYWSPRP to RRIRDRPPRLPRPRPRPPTEPRP, the “shrunken log2 fold change” value rises from 0.00748 to 0.274.

Compared with RRIRIRPPRLPRPRPRPVGLPRP, RRIRSRPPRLPRPRPRPPVGPRP is higher in “shrunken log2 fold change” value: -0.0289 for the first, 0.457 for the second.

First: RRIRMRPPRLPRPRPRPSEAPRP
Second: RRIRERPPRLPRPRPRPCLEPRP
The “shrunken log2 fold change” value of the first is higher: 1.95 for the first, -0.116 for the second.

Compared with RRIRGRPPRLPRPRPRPEVGPRP, RRIRCRPPRLPRPRPRPSIDPRP is lower in “shrunken log2 fold change” value: 1.52 for the first, -0.505 for the second.

Going from RRIRKRPPRLPRPRPRPMIRPRP to RRIRNRPPRLPRPRPRPQTTPRP, the “shrunken log2 fold change” value falls from 0.134 to -0.149.

Going from RRIRKRPPRLPRPRPRPWYCPRP to RRIRKRPPRLPRPRPRPGWEPRP, the “shrunken log2 fold change” value rises from -0.339 to -0.00146.

Going from RRIRFRPPRLPRPRPRPIWWPRP to RRIRPRPPRLPRPRPRPGKNPRP, the “shrunken log2 fold change” value falls from 0.617 to -0.00164.

Going from RRIRHRPPRLPRPRPRPMMWPRP to RRIRPRPPRLPRPRPRPGNAPRP, the “shrunken log2 fold change” value rises from -0.0542 to 0.34.

Compared with RRIRCRPPRLPRPRPRPNLGPRP, RRIRYRPPRLPRPRPRPNRSPRP is lower in “shrunken log2 fold change” value: -0.283 for the first, -0.496 for the second.

RRIRERPPRLPRPRPRPGRHPRP and RRIRKRPPRLPRPRPRPGCPPRP are within 0.2 log units of each other in “shrunken log2 fold change” value: -0.0636 for the first, 0.0566 for the second.

Going from RRIRWRPPRLPRPRPRPFNEPRP to RRIRMRPPRLPRPRPRPCSEPRP, the “shrunken log2 fold change” value rises from -0.69 to 0.514.

Going from RRIRGRPPRLPRPRPRPEQDPRP to RRIRPRPPRLPRPRPRPQWTPRP, the “shrunken log2 fold change” value falls from 1.47 to -0.0535.

RRIRTRPPRLPRPRPRPPSNPRP and RRIRHRPPRLPRPRPRPYANPRP are within 0.2 log units of each other in “shrunken log2 fold change” value: -0.244 for the first, -0.271 for the second.

Compared with RRIRTRPPRLPRPRPRPKCDPRP, RRIRIRPPRLPRPRPRPTKLPRP is lower in “shrunken log2 fold change” value: 0.118 for the first, -0.406 for the second.

RRIRQRPPRLPRPRPRPDEQPRP and RRIRWRPPRLPRPRPRPAQMPRP are within 0.2 log units of each other in “shrunken log2 fold change” value: 0.0145 for the first, 0.173 for the second.

Going from RRIRKRPPRLPRPRPRPIVWPRP to RRIRQRPPRLPRPRPRPFLAPRP, the “shrunken log2 fold change” value falls from 0.527 to 0.286.

RRIRARPPRLPRPRPRPPCMPRP and RRIRMRPPRLPRPRPRPTDPPRP are within 0.2 log units of each other in “shrunken log2 fold change” value: 0.099 for the first, 0.00799 for the second.

RRIRYRPPRLPRPRPRPQSPPRP and RRIRERPPRLPRPRPRPKKEPRP are within 0.2 log units of each other in “shrunken log2 fold change” value: -0.0354 for the first, -0.0367 for the second.

RRIRHRPPRLPRPRPRPLWGPRP and RRIRDRPPRLPRPRPRPAEQPRP are within 0.2 log units of each other in “shrunken log2 fold change” value: -0.107 for the first, 0.0426 for the second.

Going from RRIRERPPRLPRPRPRPGDKPRP to RRIRVRPPRLPRPRPRPLPEPRP, the “shrunken log2 fold change” value rises from -0.315 to 0.423.

RRIRVRPPRLPRPRPRPKMYPRP and RRIRLRPPRLPRPRPRPLYAPRP are within 0.2 log units of each other in “shrunken log2 fold change” value: -0.252 for the first, -0.389 for the second.

RRIRFRPPRLPRPRPRPMSWPRP and RRIRLRPPRLPRPRPRPIGPPRP are within 0.2 log units of each other in “shrunken log2 fold change” value: 0.131 for the first, 0.0835 for the second.

Going from RRIRCRPPRLPRPRPRPLILPRP to RRIRERPPRLPRPRPRPYRTPRP, the “shrunken log2 fold change” value falls from -0.373 to -1.15.

RRIRHRPPRLPRPRPRPNKVPRP and RRIRVRPPRLPRPRPRPWGPPRP are within 0.2 log units of each other in “shrunken log2 fold change” value: -0.238 for the first, -0.164 for the second.

RRIRLRPPRLPRPRPRPRNQPRP and RRIRTRPPRLPRPRPRPGQTPRP are within 0.2 log units of each other in “shrunken log2 fold change” value: -0.204 for the first, -0.0115 for the second.

Going from RRIRDRPPRLPRPRPRPPSPPRP to RRIRYRPPRLPRPRPRPNRFPRP, the “shrunken log2 fold change” value falls from 0.494 to -0.00943.

Going from RRIRLRPPRLPRPRPRPVLNPRP to RRIRARPPRLPRPRPRPLVGPRP, the “shrunken log2 fold change” value rises from -0.325 to 0.321.

First: RRIRLRPPRLPRPRPRPIRVPRP
Second: RRIRKRPPRLPRPRPRPMKGPRP
The “shrunken log2 fold change” value of the first is higher: 0.101 for the first, -0.156 for the second.

Going from RRIRWRPPRLPRPRPRPESDPRP to RRIRFRPPRLPRPRPRPKRGPRP, the “shrunken log2 fold change” value falls from 0.59 to 0.0365.

Compared with RRIRDRPPRLPRPRPRPICHPRP, RRIRMRPPRLPRPRPRPTHMPRP is higher in “shrunken log2 fold change” value: 0.139 for the first, 0.362 for the second.

RRIRRRPPRLPRPRPRPFYSPRP and RRIRHRPPRLPRPRPRPQMMPRP are within 0.2 log units of each other in “shrunken log2 fold change” value: -0.307 for the first, -0.279 for the second.

First: RRIRARPPRLPRPRPRPAFNPRP
Second: RRIRIRPPRLPRPRPRPERYPRP
The “shrunken log2 fold change” value of the first is higher: 0.273 for the first, -0.175 for the second.

First: RRIRCRPPRLPRPRPRPERIPRP
Second: RRIRKRPPRLPRPRPRPLHIPRP
The “shrunken log2 fold change” value of the first is higher: 0.164 for the first, -0.172 for the second.

Compared with RRIRRRPPRLPRPRPRPTERPRP, RRIRCRPPRLPRPRPRPTSTPRP is lower in “shrunken log2 fold change” value: 0.409 for the first, -0.165 for the second.

Compared with RRIRERPPRLPRPRPRPCRFPRP, RRIRIRPPRLPRPRPRPLCDPRP is lower in “shrunken log2 fold change” value: -0.455 for the first, -0.655 for the second.

First: RRIRGRPPRLPRPRPRPYSAPRP
Second: RRIRYRPPRLPRPRPRPEMIPRP
The “shrunken log2 fold change” value of the first is lower: -0.29 for the first, 0.0135 for the second.

First: RRIRKRPPRLPRPRPRPQFQPRP
Second: RRIRYRPPRLPRPRPRPTYTPRP
The “shrunken log2 fold change” value of the first is higher: -0.0733 for the first, -0.802 for the second.

Going from RRIRMRPPRLPRPRPRPALNPRP to RRIRGRPPRLPRPRPRPKPSPRP, the “shrunken log2 fold change” value rises from 0.759 to 1.1.

Compared with RRIRSRPPRLPRPRPRPEHVPRP, RRIRMRPPRLPRPRPRPYQDPRP is higher in “shrunken log2 fold change” value: -0.191 for the first, 0.0259 for the second.

Going from RRIRWRPPRLPRPRPRPMMYPRP to RRIRGRPPRLPRPRPRPDAKPRP, the “shrunken log2 fold change” value rises from -0.339 to 2.

RRIRIRPPRLPRPRPRPENDPRP and RRIRERPPRLPRPRPRPAYRPRP are within 0.2 log units of each other in “shrunken log2 fold change” value: -0.312 for the first, -0.429 for the second.

First: RRIRIRPPRLPRPRPRPWMTPRP
Second: RRIRFRPPRLPRPRPRPNCLPRP
The “shrunken log2 fold change” value of the first is lower: -0.53 for the first, -0.0273 for the second.

Compared with RRIRQRPPRLPRPRPRPKEKPRP, RRIRQRPPRLPRPRPRPVNHPRP is lower in “shrunken log2 fold change” value: 0.00902 for the first, -0.212 for the second.

RRIRFRPPRLPRPRPRPECKPRP and RRIRMRPPRLPRPRPRPCVSPRP are within 0.2 log units of each other in “shrunken log2 fold change” value: -0.0133 for the first, -0.0589 for the second.

RRIRVRPPRLPRPRPRPHWRPRP and RRIRGRPPRLPRPRPRPHLIPRP are within 0.2 log units of each other in “shrunken log2 fold change” value: 0.306 for the first, 0.205 for the second.

Compared with RRIRKRPPRLPRPRPRPRDLPRP, RRIRPRPPRLPRPRPRPGVTPRP is lower in “shrunken log2 fold change” value: 0.255 for the first, -0.227 for the second.

RRIRFRPPRLPRPRPRPQAFPRP and RRIRYRPPRLPRPRPRPCQHPRP are within 0.2 log units of each other in “shrunken log2 fold change” value: -0.175 for the first, -0.253 for the second.

RRIRRRPPRLPRPRPRPVMHPRP and RRIRHRPPRLPRPRPRPCSQPRP are within 0.2 log units of each other in “shrunken log2 fold change” value: 0.0548 for the first, -0.00141 for the second.

RRIRKRPPRLPRPRPRPMYHPRP and RRIRPRPPRLPRPRPRPTWCPRP are within 0.2 log units of each other in “shrunken log2 fold change” value: -0.0356 for the first, 0.08 for the second.

Compared with RRIRSRPPRLPRPRPRPGYYPRP, RRIRFRPPRLPRPRPRPVCHPRP is lower in “shrunken log2 fold change” value: -0.457 for the first, -0.705 for the second.

Going from RRIRQRPPRLPRPRPRPNCRPRP to RRIRTRPPRLPRPRPRPGLHPRP, the “shrunken log2 fold change” value falls from 0.13 to -0.102.

First: RRIRHRPPRLPRPRPRPFHFPRP
Second: RRIRCRPPRLPRPRPRPCVRPRP
The “shrunken log2 fold change” value of the first is lower: -0.403 for the first, -0.163 for the second.

RRIRPRPPRLPRPRPRPVICPRP and RRIRWRPPRLPRPRPRPDLIPRP are within 0.2 log units of each other in “shrunken log2 fold change” value: 0.0853 for the first, 0.0332 for the second.

Compared with RRIRKRPPRLPRPRPRPQENPRP, RRIRIRPPRLPRPRPRPTDDPRP is lower in “shrunken log2 fold change” value: 0.256 for the first, -0.217 for the second.

First: RRIRNRPPRLPRPRPRPAGTPRP
Second: RRIRYRPPRLPRPRPRPDWKPRP
The “shrunken log2 fold change” value of the first is higher: 0.0756 for the first, -0.208 for the second.

Compared with RRIRCRPPRLPRPRPRPEWRPRP, RRIRYRPPRLPRPRPRPVAGPRP is lower in “shrunken log2 fold change” value: 0.391 for the first, -0.0147 for the second.

Going from RRIRVRPPRLPRPRPRPPLWPRP to RRIRGRPPRLPRPRPRPTACPRP, the “shrunken log2 fold change” value rises from 0.646 to 1.35.

RRIRPRPPRLPRPRPRPQKYPRP and RRIRYRPPRLPRPRPRPDLNPRP are within 0.2 log units of each other in “shrunken log2 fold change” value: -0.257 for the first, -0.0755 for the second.

RRIRNRPPRLPRPRPRPLLTPRP and RRIRNRPPRLPRPRPRPAPNPRP are within 0.2 log units of each other in “shrunken log2 fold change” value: -0.046 for the first, -0.0796 for the second.

Compared with RRIRKRPPRLPRPRPRPQFYPRP, RRIRWRPPRLPRPRPRPLLPPRP is higher in “shrunken log2 fold change” value: -0.555 for the first, 0.676 for the second.

With RRIRYRPPRLPRPRPRPDIMPRP the “shrunken log2 fold change” value was -1.15.
